Molecular target: HLA-B*07 (Homo sapiens, UniProt P01889)
Assay: MHC binding assay (UV-ligand exchange, ELISA of stabilized MHC complexes)
Settings: peptide exchange yield on HLA-B*07, UV-ligand exchange
Outline: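 Binding is reported as exchange yield: an ELISA with HRP-conjugated anti-β2m (A450, TMB) quantified how much test peptide stabilized MHC after UV cleavage of a photolabile placeholder peptide. Exchange monomers were diluted 100-fold and captured on streptavidin-coated plates for 1 h at 37 °C.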

Substance	Peptide exchange
19 (WPRLPGAGL; listed as Homo sapiens) [compound 19]	+++ (>50 = +++)
144 (RPVQGIPTY; listed as Homo sapiens) [compound 144]	+++ (>50 = +++)
125 (SPAKQFNIY; listed as Homo sapiens) [compound 125]	++ (>20% = ++)
136 (QPDHAGIFRVF; listed as Homo sapiens) [compound 136]	++++ (>75% = ++++)
263 (SQRPPATSQA; listed as Homo sapiens) [compound 263]	++ (>20% = ++)
72 (APCNGNVAV; listed as Homo sapiens) [compound 72]	+++ (>50 = +++)
114 (FVPPSGPSNPM; listed as Homo sapiens) [compound 114]	++ (>20% = ++)
216 (LPWEQNEQV; listed as Homo sapiens) [compound 216]	+++ (>50 = +++)
228 (RPTAASQSRAL; listed as Homo sapiens) [compound 228]	+++ (>50 = +++)
245 (GPVPSPLAL; listed as Homo sapiens) [compound 245]	++++ (>75% = ++++)
180 (RLRDYISSL; listed as Homo sapiens) [compound 180]	++++ (>75% = ++++)
35 (APLPPPRAL; listed as Homo sapiens) [compound 35]	+++ (>50 = +++)
171 (LPLGGHKSL; listed as Homo sapiens) [compound 171]	+++ (>50 = +++)
150 (APLHGGGSL; listed as Homo sapiens) [compound 150]	+++ (>50 = +++)
240 (RVMLPKAAL; listed as Homo sapiens) [compound 240]	+++ (>50 = +++)
135 (MPRLLRLSL; listed as Homo sapiens) [compound 135]	+++ (>50 = +++)
74 (VPVSHPVL; listed as Homo sapiens) [compound 74]	++++ (>75% = ++++)
43 (APTPRPKVL; listed as Homo sapiens) [compound 43]	++++ (>75% = ++++)
195 (NPIFGRKEL; listed as Homo sapiens) [compound 195]	+++ (>50 = +++)
140 (TPFPDIHWF; listed as Homo sapiens) [compound 140]	++++ (>75% = ++++)
199 (SPFWIHQA; listed as Homo sapiens) [compound 199]	++ (>20% = ++)
156 (GSRPVTGSV; listed as Homo sapiens) [compound 156]	+++ (>50 = +++)
233 (MAYDRFIAI; listed as Homo sapiens) [compound 233]	+++ (>50 = +++)
20 (MVLGIGPVL; listed as Homo sapiens) [compound 20]	++++ (>75% = ++++)
262 (SPSTSRTPLLSSL; listed as Homo sapiens) [compound 262]	++++ (>75% = ++++)
122 (KPRTPFTTAQLL; listed as Homo sapiens) [compound 122]	++++ (>75% = ++++)

Substance	Peptide exchange
190 (RLAHVRARL; listed as Homo sapiens) [compound 190]	+++ (>50 = +++)
109 (LPRALMRST; listed as Homo sapiens) [compound 109]	+++ (>50 = +++)
164 (RAAGRRLQL; listed as Homo sapiens) [compound 164]	++++ (>75% = ++++)
79 (GPASDHPSL; listed as Homo sapiens) [compound 79]	+++ (>50 = +++)
212 (VPYAAQAAL; listed as Homo sapiens) [compound 212]	++++ (>75% = ++++)
81 (IAYPSLREAAL; listed as Homo sapiens) [compound 81]	++ (>20% = ++)
198 (LPSPAHAFRAL; listed as Homo sapiens) [compound 198]	+++ (>50 = +++)
108 (APRGSPPI; listed as Homo sapiens) [compound 108]	+++ (>50 = +++)
162 (IPIRVDQNGAF; listed as Homo sapiens) [compound 162]	+++ (>50 = +++)
15 (KPGFNISIL; listed as Homo sapiens) [compound 15]	++++ (>75% = ++++)
167 (NVNPARKGL; listed as Homo sapiens) [compound 167]	++++ (>75% = ++++)
121 (GPFQRAAL; listed as Homo sapiens) [compound 121]	+++ (>50 = +++)
234 (HPRAPGEQQRL; listed as Homo sapiens) [compound 234]	+++ (>50 = +++)
30 (YPGFTKRL; listed as Homo sapiens) [compound 30]	+++ (>50 = +++)
8 (MPKTNLSKM; listed as Homo sapiens) [compound 8]	+++ (>50 = +++)
117 (IPHQRSSL; listed as Homo sapiens) [compound 117]	++++ (>75% = ++++)
170 (APEGKRLGF; listed as Homo sapiens) [compound 170]	++++ (>75% = ++++)
91 (FPRLVGPDFF; listed as Homo sapiens) [compound 91]	++++ (>75% = ++++)
169 (RPFSVSSISQL; listed as Homo sapiens) [compound 169]	++++ (>75% = ++++)
232 (TAYPSLRLL; listed as Homo sapiens) [compound 232]	+++ (>50 = +++)
41 (MPAGGGPRSL; listed as Homo sapiens) [compound 41]	++++ (>75% = ++++)
126 (MPREDAHF; listed as Homo sapiens) [compound 126]	+ (>10% = +)
157 (RPVTGSVC; listed as Homo sapiens) [compound 157]	++++ (>75% = ++++)
16 (FPAPPAHWF; listed as Homo sapiens) [compound 16]	++++ (>75% = ++++)
145 (VPAQRLGLLL; listed as Homo sapiens) [compound 145]	+++ (>50 = +++)
62 (KPQSTISGL; listed as Homo sapiens) [compound 62]	+++ (>50 = +++)

The remaining lines, values ahead:

Peptide exchange	Substance
++++ (>75% = ++++)	308 (RPDVVRTLL; listed as Homo sapiens) [compound 308]
+++ (>50 = +++)	329 (QPANFIVLL; listed as Homo sapiens) [compound 329]
+++ (>50 = +++)	339 (GPQRTTSV; listed as Homo sapiens) [compound 339]
++++ (>75% = ++++)	490 (APRGPAQGEAA; listed as Homo sapiens) [compound 490]
++++ (>75% = ++++)	317 (MPYNSAHHCVV; listed as Homo sapiens) [compound 317]
++++ (>75% = ++++)	349 (QPRDGWPMML; listed as Homo sapiens) [compound 349]
++++ (>75% = ++++)	296 (SPLLMQRTL; listed as Homo sapiens) [compound 296]
++++ (>75% = ++++)	478 (APKFISPASQL; listed as Homo sapiens) [compound 478]
++++ (>75% = ++++)	266 (KPYEGRVEI; listed as Homo sapiens) [compound 266]
+++ (>50 = +++)	494 (LPLRAVNLNL; listed as Homo sapiens) [compound 494]
++++ (>75% = ++++)	487 (IPWFIKTAF; listed as Homo sapiens) [compound 487]
++++ (>75% = ++++)	498 (RPQPQPRPAL; listed as Homo sapiens) [compound 498]
+++ (>50 = +++)	353 (KPRATWTL; listed as Homo sapiens) [compound 353]
++++ (>75% = ++++)	462 (MPLLADVRL; listed as Homo sapiens) [compound 462]
+++ (>50 = +++)	336 (YPLQGPGLLSV; listed as Homo sapiens) [compound 336]
++++ (>75% = ++++)	379 (GPRQVLFPL; listed as Homo sapiens) [compound 379]
++ (>20% = ++)	448 (TVYGEPRKL; listed as Homo sapiens) [compound 448]
++++ (>75% = ++++)	315 (APVVFPAL; listed as Homo sapiens) [compound 315]
++++ (>75% = ++++)	350 (RPKSTLMNF; listed as Homo sapiens) [compound 350]
++++ (>75% = ++++)	280 (LPRAFLQSL; listed as Homo sapiens) [compound 280]
++++ (>75% = ++++)	303 (RPPPPCIAL; listed as Homo sapiens) [compound 303]
++++ (>75% = ++++)	295 (HPRWIEPTVM; listed as Homo sapiens) [compound 295]
++++ (>75% = ++++)	474 (VPKADLLTL; listed as Homo sapiens) [compound 474]
++ (>20% = ++)	273 (TDTPSTTPTTI; listed as Homo sapiens) [compound 273]
++++ (>75% = ++++)	276 (RPVWDVRSA; listed as Homo sapiens) [compound 276]
++++ (>75% = ++++)	325 (SPRSNPVRL; listed as Homo sapiens) [compound 325]
++ (>20% = ++)	304 (SPLIGDFPAF; listed as Homo sapiens) [compound 304]
++++ (>75% = ++++)	318 (TPISNTGVL; listed as Homo sapiens) [compound 318]
+++ (>50 = +++)	278 (LIAARGSLVL; listed as Homo sapiens) [compound 278]

Source: patent US20220289816A1, “IMMUNOTHERAPY WITH B*07 RESTRICTED PEPTIDES AND COMBINATION OF PEPTIDES AGAINST CANCERS AND RELATED METHODS” (Immatics Biotechnologies GmbH, priority 2018, published 2022)
